According to article PMC5717063:

Key:
[1] = target: mammalian wild-type HSP60 purified from porcine liver (porcine)
[2] = target: mammalian wild-type HSP60 purified from porcine liver (porcine); experiment: transmission electron microscopy; HSP60 alone, without nucleotide (Figure S1A)
[3] = target: mammalian wild-type HSP60 purified from porcine liver (porcine); experiment: transmission electron microscopy; HSP60 alone with ATP; side views classified, over 100 molecules counted
[4] = target: mammalian wild-type HSP60 purified from porcine liver (porcine); experiment: transmission electron microscopy; HSP60 alone with GTP; side views classified, over 100 molecules counted
[5] = target: mammalian wild-type HSP60 purified from porcine liver (porcine); experiment: transmission electron microscopy; HSP60 with HSP10 and ATP; side views classified, over 100 molecules counted

| refolding yield of chemically denatured rhodanese by HSP60/HSP10 in the presence of GTP (recovery of enzymatic activity, 60 min) [1] | stoichiometry N [2] | percent of HSP60 as double-ring (HSP60 14) [3] | stoichiometry N [3] | percent of HSP60 as double-ring [4] | percent of HSP60 in double-ring structures [5] | Substance |
| --- | --- | --- | --- | --- | --- | --- |
| 40% |  |  |  |  |  | mammalian wild-type HSP10 purified from porcine liver (from UniProt F1SMZ6 1-102) (natural protein) |
|  | 7 | 40% | 14 | 20% | 70% | mammalian wild-type HSP60 purified from porcine liver (natural protein) |
